Test results taken from paper PMC5708649, “A novel Porphyromonas gingivalis enzyme: An atypical dipeptidyl peptidase III with an ARM repeat domain” (PLoS ONE, 2017).

Assays:
[1] = Thermal denaturation by circular dichroism; format: physicochemical; settings: thermal denaturation curves, CD
Method: Secondary structure and temperature stability of recombinant proteins were determined by recording circular dichroism spectra (CD) on a Jasco J-815 spectropolarimetar (JASCO, Easton, MD, USA) with automatic temperature control according to Jajčanin-Jozić et al.. Analysis of protein secondary structure from CD spectra was performed by using the CDSSTR program at the DICHROWEB site (http://public-1.cryst.bbk.ac.uk/cdweb/html). Protein concentrations were determined by the Bradford method.

[2] = system: E. coli BK2118 (tag, alkA); experiment: MMS complementation assay; format: cell-based, Escherichia coli; settings: pUC18 constructs, 1 mM to 5 mM MMS plates, 2 days, 37°C

B1: PgDPP III: full-length dipeptidyl peptidase III from P. gingivalis W83 (PG_0317), 886 aa (protein)
chain: MTKETTQHRSGERIARFADIEVLSYRADLFGTLTPKQRMLCYHLSEAALRGRDITTIQNCRYNLWVRSLMERIYTHLSKSERTDDFALLEEYLFCIWFANGIHHHYSGAKFIARFSPGFLRAALREAGVELEPEEQVLLERVLYDTDFLPKQTEQSGEEDIIKASSVNFYAPGITRAEAESHYKNLIEALPENEKSCPPSFGLNTRLIRSTSGELKDEVCCIDGLYGPAIEAVVASLEAAIPYTENEEQAACIRLLCDYYRTGDIRLYDRFCIRWVENNRTRIDFINGFTEVYADPIGIHGSWEGLVHMQDEEAGRRTRIISEHAGWFEAHSPIDARFRKKNPHGISATVVNVLTIAGDSYPATPIGINLPNADWIRAEHGSKSVTIDNITDAYNHAARGTGLYEEFIPDEEVRRHVELHADLTDSLHTDLHECLGHGSGQLLPGVPGDALGEHASTLEETRADLFALYFLADPKMIELGLLTDPDAYKANYYKYMLNGLMTQLVRIKRGEEIEEAHMRNRALIARYVLEHAERPGAMSLVCEEGKTALVIKDYEAVRAIIAGLLTEVQRIKSEGDYTAGKALVERYAVHVDPLLHEEVLTRYAKLDIAPYKGFVNPRLRPVYNSEGRLTDATIEYTEGYAEQMLRYSAEYSFLPTDSPLLQEARRLRSHLRRAMDGVLSASMREKGLHYGINFGVTREHLLRLARTADASAPLADYLWRRDVRETKILATMIFPAEELTHEQATRLLREADNVELREQLTANLLERMPEAIRSIGRWIESKETTPDMMTGVLTLAARLFTRGIFPEDVPAEKLLTLAILHLSDEEQKAELRRASALLLKRYGRGSAERTKKVLCLLPESSQDTAPVLYELCEDIRFELDFYPKDE
modifications: left off: His tag, C-terminal, state not stated
- Tm [1]: 50 °C
- rescue of alkylation-sensitive phenotype / alkylation repair function (in words) [2]: absence of any alkylation repair function
- rescue of alkylation-sensitive phenotype / alkylation repair function (in words) ([2]; listed as full length PgDPP III): does not possess alkylation repair function
